# Experimental data from article PMC10593786.
# Assays:
# [1] = molecular target: FLMyo6 (T888D.Q892E.V903D) (human) (UniProt Q9UM54)
# [2] = molecular target: Jo-Myo6-In heavy chain (Streptococcus pneumoniae | human); experiment: co-purification, SDS-PAGE; CaM co-expressed with Jo-Myo6-In in Sf9 cells, purified by the Flag tag of the heavy chain, read by SDS-PAGE
# [3] = molecular target: full-length wild-type Myo6, small insert isoform (FLMyo6 SI (WT)) (human) (UniProt Q9UM54)
substance,measurement,setting,value
FLMyo6 (T888D.Q892E.V903D) (from UniProt Q9UM54-5 1-1253; P0DP23 1-149) (complex),maximal actin-activated ATPase rate of FLMyo6 (T888D.Q892E.V903D) upon GIPC1 addition (loss of gating),[1],2 fold
calmodulin (CaM) (from UniProt P0DP23 1-149) (natural protein),stoichiometry N (CaM per heavy chain),[2],2
"full-length wild-type Myo6, small insert isoform (FLMyo6 SI (WT)) (from UniProt Q9UM54-2 1-1262; P0DP23 1-149) (complex)","decrease in maximal actin-activated ATPase activity per Head of FLMyo6 (WT, no-insert isoform) upon addition of GIPC1, compared to monomeric MD^Ins2 (gating in a dimer)",[3],50%
